Columns and labels:
[1] = target: c-Src SH2; assay: SH2 binding enrichment of the phosphorylated peptide, bacterial display (enrichment ratio); higher = better substrate or ligand; peptides without Tyr show the background
[2] = target: Grb2 SH2 (UniProt P62993); assay: as above
[3] = target: SHP2-C SH2; assay: as above
[4] = system: c-Abl (mouse); assay: phosphorylation enrichment, bacterial display (enrichment ratio); higher = better substrate or ligand; peptides without Tyr show the background
[5] = target: Jak2 (UniProt O60674); assay: as above
Jak2, sequence (O60674 whole entry, looked up): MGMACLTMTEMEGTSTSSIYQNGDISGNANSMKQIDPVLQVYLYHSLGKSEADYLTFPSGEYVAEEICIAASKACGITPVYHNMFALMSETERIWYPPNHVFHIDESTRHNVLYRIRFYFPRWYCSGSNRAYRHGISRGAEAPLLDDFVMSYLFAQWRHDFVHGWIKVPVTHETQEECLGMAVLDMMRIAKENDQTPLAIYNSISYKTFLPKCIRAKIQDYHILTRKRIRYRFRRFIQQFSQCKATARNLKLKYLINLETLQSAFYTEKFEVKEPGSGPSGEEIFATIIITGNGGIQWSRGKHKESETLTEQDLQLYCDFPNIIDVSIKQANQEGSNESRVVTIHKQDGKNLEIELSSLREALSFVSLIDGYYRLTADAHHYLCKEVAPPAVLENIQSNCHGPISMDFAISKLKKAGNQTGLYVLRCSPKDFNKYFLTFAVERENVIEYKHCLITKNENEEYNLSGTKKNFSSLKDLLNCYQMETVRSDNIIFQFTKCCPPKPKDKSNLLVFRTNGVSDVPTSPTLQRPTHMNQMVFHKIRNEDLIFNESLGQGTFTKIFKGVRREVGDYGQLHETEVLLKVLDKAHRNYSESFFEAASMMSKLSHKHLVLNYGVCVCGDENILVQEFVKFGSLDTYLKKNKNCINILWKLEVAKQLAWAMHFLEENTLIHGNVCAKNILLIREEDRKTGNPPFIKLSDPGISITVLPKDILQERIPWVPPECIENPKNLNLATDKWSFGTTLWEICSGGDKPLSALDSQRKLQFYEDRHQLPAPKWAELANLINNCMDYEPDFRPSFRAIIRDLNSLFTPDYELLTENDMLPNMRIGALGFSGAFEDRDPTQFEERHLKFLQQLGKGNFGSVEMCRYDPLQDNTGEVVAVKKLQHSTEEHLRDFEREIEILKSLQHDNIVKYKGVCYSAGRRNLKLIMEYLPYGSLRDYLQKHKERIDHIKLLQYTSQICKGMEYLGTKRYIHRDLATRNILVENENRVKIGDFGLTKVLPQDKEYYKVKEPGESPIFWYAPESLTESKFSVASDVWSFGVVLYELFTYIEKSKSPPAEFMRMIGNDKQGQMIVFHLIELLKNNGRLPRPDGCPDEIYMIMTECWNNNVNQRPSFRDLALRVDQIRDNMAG

[6] = target: FGFR3 (UniProt P22607); assay: as above
FGFR3, sequence (P22607 whole entry, looked up): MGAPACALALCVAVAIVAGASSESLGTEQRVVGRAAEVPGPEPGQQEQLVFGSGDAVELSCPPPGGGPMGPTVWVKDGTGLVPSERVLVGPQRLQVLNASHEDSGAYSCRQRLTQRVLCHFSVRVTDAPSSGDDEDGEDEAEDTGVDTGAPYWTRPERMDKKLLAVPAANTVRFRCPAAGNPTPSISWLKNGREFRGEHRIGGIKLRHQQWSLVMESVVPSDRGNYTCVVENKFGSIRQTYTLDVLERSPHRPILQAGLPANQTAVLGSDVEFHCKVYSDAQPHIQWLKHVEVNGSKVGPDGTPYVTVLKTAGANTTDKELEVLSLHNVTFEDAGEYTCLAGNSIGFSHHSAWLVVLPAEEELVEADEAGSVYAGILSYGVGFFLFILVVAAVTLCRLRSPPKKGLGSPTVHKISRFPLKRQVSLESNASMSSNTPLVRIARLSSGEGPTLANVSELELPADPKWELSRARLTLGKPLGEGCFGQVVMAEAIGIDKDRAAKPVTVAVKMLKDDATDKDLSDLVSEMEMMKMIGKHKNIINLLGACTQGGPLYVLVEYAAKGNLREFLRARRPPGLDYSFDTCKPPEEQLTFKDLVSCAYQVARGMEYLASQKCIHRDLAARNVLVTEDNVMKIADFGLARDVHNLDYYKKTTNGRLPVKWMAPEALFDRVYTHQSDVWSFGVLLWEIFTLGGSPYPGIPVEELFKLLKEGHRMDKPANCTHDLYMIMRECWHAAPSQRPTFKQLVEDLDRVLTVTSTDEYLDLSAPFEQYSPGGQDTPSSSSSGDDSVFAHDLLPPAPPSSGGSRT

[7] = target: EPHB2 (UniProt P29323); assay: as above
[8] = system: c-Src; assay: as above
[9] = target: EPHB1 (UniProt P54762); assay: as above
EPHB1, sequence (P54762 whole entry, looked up): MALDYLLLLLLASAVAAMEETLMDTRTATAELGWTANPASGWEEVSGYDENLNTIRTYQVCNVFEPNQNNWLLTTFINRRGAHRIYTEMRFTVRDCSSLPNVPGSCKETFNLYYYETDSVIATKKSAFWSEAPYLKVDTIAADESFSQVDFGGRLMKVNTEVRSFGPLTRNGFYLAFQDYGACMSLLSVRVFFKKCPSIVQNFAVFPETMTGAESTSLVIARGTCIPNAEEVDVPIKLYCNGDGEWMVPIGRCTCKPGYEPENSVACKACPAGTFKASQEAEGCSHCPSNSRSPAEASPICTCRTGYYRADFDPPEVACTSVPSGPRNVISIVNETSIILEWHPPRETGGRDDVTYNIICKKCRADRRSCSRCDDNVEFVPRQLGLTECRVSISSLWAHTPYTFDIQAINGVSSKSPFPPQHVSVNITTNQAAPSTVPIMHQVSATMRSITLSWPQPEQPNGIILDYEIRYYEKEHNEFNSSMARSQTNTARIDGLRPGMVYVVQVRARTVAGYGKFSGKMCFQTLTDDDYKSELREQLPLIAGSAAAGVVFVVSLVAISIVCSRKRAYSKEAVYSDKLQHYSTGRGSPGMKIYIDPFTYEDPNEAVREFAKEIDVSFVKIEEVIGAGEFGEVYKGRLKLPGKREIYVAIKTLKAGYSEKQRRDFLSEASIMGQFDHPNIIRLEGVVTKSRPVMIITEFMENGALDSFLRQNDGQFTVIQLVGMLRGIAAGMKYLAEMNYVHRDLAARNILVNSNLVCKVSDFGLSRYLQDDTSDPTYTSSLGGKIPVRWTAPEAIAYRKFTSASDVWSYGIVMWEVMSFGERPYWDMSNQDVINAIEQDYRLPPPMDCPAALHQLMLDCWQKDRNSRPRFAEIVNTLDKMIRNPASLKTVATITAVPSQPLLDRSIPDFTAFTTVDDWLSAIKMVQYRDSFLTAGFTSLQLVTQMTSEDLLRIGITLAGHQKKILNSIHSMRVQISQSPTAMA

[10] = target: Fyn (UniProt P06241); assay: as above
Fyn, sequence (P06241 whole entry, looked up): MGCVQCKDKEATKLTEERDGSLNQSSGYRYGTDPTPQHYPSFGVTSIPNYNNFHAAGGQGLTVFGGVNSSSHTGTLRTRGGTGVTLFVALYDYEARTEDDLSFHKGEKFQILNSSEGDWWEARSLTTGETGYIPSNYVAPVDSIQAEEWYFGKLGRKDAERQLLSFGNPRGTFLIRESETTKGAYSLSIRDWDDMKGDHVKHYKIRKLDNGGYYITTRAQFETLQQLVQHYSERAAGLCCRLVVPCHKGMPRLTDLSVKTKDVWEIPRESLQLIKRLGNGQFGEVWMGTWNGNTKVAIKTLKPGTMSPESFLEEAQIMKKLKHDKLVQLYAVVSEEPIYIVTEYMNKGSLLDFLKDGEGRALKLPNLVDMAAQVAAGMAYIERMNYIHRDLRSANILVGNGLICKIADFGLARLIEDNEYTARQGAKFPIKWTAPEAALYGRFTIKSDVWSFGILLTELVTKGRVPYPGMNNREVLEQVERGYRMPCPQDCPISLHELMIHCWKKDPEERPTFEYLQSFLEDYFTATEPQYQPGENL

[11] = target: FGFR1 (UniProt P11362); assay: as above
[12] = target: Hck (UniProt P08631); assay: as above
Hck, sequence (P08631 whole entry, looked up): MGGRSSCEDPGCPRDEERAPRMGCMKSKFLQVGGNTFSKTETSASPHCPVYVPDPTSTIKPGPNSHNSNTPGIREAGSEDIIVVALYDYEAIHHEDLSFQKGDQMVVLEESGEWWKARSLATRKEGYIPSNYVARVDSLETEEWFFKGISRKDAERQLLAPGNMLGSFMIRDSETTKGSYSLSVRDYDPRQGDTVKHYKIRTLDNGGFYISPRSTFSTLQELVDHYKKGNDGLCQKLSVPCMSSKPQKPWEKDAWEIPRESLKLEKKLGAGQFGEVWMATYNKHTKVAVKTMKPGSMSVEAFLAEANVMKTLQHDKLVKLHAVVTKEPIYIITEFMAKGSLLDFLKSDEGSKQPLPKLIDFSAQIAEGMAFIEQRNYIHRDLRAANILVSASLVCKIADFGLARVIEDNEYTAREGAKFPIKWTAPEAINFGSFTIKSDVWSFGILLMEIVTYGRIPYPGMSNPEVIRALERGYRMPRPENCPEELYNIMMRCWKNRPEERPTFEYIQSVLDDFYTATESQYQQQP

[13] = system: AncSZ; assay: as above
[14] = target: MERTK (UniProt Q12866); assay: as above
[15] = target: Fes (UniProt P07332); assay: as above
Fes, sequence (P07332 whole entry, looked up): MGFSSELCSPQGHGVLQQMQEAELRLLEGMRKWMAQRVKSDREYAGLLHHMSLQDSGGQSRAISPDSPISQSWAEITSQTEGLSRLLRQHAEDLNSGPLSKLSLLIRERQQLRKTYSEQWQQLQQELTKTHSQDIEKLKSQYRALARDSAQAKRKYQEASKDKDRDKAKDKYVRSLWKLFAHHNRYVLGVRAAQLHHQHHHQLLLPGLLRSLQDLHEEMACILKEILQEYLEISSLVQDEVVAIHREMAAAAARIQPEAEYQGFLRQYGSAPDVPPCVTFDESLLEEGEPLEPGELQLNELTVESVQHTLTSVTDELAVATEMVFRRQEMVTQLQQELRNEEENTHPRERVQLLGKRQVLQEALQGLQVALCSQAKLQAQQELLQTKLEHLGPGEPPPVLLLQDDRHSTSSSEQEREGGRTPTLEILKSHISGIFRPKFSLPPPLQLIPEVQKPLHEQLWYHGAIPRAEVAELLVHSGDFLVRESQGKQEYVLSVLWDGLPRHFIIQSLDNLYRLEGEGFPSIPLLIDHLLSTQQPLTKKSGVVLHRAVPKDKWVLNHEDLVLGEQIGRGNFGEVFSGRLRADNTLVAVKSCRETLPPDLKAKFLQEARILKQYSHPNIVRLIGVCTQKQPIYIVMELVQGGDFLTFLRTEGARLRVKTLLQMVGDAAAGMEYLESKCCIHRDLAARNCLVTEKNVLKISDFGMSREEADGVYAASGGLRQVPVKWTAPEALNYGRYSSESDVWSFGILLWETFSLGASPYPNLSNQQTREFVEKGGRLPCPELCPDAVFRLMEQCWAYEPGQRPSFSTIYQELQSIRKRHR

[16] = system: Fer (mouse); assay: as above
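For SH2 binding enrichment of the phosphorylated peptide, bacterial display in this document: peptide library displayed on the E. coli surface as eCPX fusions, selected cells deep-sequenced, score is each peptide's frequency after selection divided by its frequency in the input.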
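For phosphorylation enrichment, bacterial display in this document: 11-residue human phosphosite peptides and single-mutation variants displayed on the E. coli surface, counted by deep sequencing, each peptide's frequency after selection divided by its frequency in the unselected input library; frequency after pTyr selection over input frequency; kinase dosed for 20-30% of maximal phosphorylation in three min.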

Grb2 SH2, sequence (P62993 whole entry, looked up): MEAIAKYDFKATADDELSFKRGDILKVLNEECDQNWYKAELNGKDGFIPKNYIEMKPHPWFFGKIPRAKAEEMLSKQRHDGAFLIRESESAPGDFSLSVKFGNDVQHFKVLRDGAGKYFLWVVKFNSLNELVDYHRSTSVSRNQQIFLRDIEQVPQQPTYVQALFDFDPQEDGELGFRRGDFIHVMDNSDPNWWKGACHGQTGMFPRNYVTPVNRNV

| Sequence | SH2 binding enrichment [1] | SH2 binding enrichment [2] | SH2 binding enrichment [3] | phosphorylation enrichment [4] | phosphorylation enrichment [5] | phosphorylation enrichment [6] | phosphorylation enrichment [7] | phosphorylation enrichment [8] | phosphorylation enrichment [9] | phosphorylation enrichment [10] | phosphorylation enrichment [11] | phosphorylation enrichment [12] | phosphorylation enrichment [13] | phosphorylation enrichment [14] | phosphorylation enrichment [15] | phosphorylation enrichment [16] |
| --- | --- | --- | --- | --- | --- | --- | --- | --- | --- | --- | --- | --- | --- | --- | --- | --- |
| QLPRGYISILV [BAG3_Y205_P209L] | 0.6 | 1.04 | 0.682 | 0.806 | 1.07 | 0.748 | 0.848 | 0.479 | 0.583 | 0.563 | 0.589 | 0.675 | 1.11 | 0.611 | 1.38 | 0.663 |
| QMQLKYSQSDL [SMC1A_Y714_R711Q] | 0.283 | 0.529 | 0.534 | 0.885 | 0.569 | 0.735 | 0.494 | 0.457 | 0.68 | 0.654 | 0.829 | 0.655 | 0.973 | 0.69 | 1.32 | 0.621 |
| QMQNPYSSHSS [MUC13_Y501_R503S] | 0.49 | 0.921 | 0.526 | 0.446 | 0.467 | 0.611 | 0.718 | 0.818 | 0.546 | 1.15 | 0.636 | 0.449 | 0.625 | 0.432 | 0.659 | 1.26 |
| QMVRMYASSYM [AVPR2_Y124_G122R] | 0.455 | 0.899 | 0.64 | 0.675 | 0.764 | 0.988 | 0.787 | 0.464 | 0.842 | 0.557 | 0.622 | 0.621 | 1.31 | 0.659 | 1.28 | 0.717 |
| QNTGNYFDLFG [PTPN11_Y62_D61N_YF] | 0.599 | 1.04 | 0.867 | 1.28 | 4.13 | 15.3 | 22.6 | 0.71 | 27.6 | 0.541 | 21.2 | 0.49 | 1.6 | 10.8 | 1.44 | 0.925 |
| QNTGVYFDLFG [PTPN11_Y62_D61V_YF] | 0.661 | 0.731 | 0.688 | 0.912 | 1.95 | 11.6 | 1.33 | 2.02 | 2.93 | 3.82 | 12.8 | 3.34 | 2 | 3.19 | 1.52 | 0.831 |
| QNTGYYYDLYG [PTPN11_Y62_D61Y] | 6.14 | 1.54 | 2.18 | 1.25 | 8.69 | 17.8 | 17.9 | 7.11 | 18.4 | 7.01 | 21.1 | 9.49 | 1.9 | 15.6 | 1.96 | 4.32 |
| QQTYTYDSGIH [JUP_Y22] | 0.744 | 1 | 0.535 | 0.841 | 1.2 | 1.38 | 1.5 | 1.41 | 1.09 | 1.65 | 1.12 | 1.61 | 1.45 | 3.33 | 1.35 | 0.454 |
| QRIFQYIQSRF [DYRK1B_Y273_YF] | 0.9 | 1.15 | 1.17 | 0.583 | 1.58 | 0.619 | 0.356 | 0.557 | 0.707 | 0.502 | 0.416 | 0.572 | 1.09 | 0.728 | 1.45 | 0.693 |
| QTLTDYDIRFF [CSNK2A1_Y131_YF] | 0.413 | 0.794 | 0.651 | 0.737 | 0.998 | 0.888 | 0.677 | 0.481 | 0.626 | 0.709 | 0.569 | 0.691 | 1.16 | 0.531 | 1.48 | 0.604 |
| QYQEKYKQMEQ [HCN4_Y531_V534M] | 0.436 | 0.891 | 0.705 | 0.584 | 0.684 | 0.827 | 0.507 | 0.374 | 0.61 | 0.547 | 0.618 | 0.431 | 0.99 | 0.287 | 1.23 | 0.632 |
| QYRFIYMAVQH [PTPN11_Y515] | 0.693 | 1.2 | 0.713 | 0.973 | 1.21 | 1.48 | 0.947 | 1.93 | 1.52 | 1.82 | 0.667 | 2.21 | 1.32 | 0.729 | 1.22 | 1.29 |
| RAADYYSQQMA [GBP6_Y334] | 0.545 | 1.01 | 0.63 | 0.576 | 0.672 | 0.875 | 0.339 | 0.435 | 0.917 | 0.371 | 1.38 | 0.456 | 0.537 | 0.39 | 0.619 | 0.416 |
| RAMPVYKKAEH [TP63_Y231] | 0.351 | 1.29 | 0.459 | 0.301 | 0.306 | 0.238 | 0.26 | 0.288 | 0.197 | 0.337 | 0.304 | 0.27 | 0.462 | 0.292 | 0.379 | 0.28 |
| RCKNHYAAFSV [C1QTNF1_Y145_S143N] | 1.67 | 1.98 | 1.7 | 0.72 | 0.63 | 0.56 | 0.562 | 0.633 | 0.286 | 0.415 | 0.488 | 0.615 | 0.538 | 0.572 | 0.749 | 0.488 |
| REDVFYTSKLW [AKR1C2_Y81_I79V] | 0.511 | 0.807 | 0.729 | 1.25 | 1.41 | 1.05 | 0.631 | 0.662 | 0.759 | 0.89 | 0.742 | 0.802 | 1.52 | 1.3 | 1.45 | 0.422 |
| RENGPYYTSYP [GDAP2_Y487] | 0.955 | 1.09 | 0.597 | 1.55 | 0.863 | 3.32 | 1.45 | 3.17 | 0.896 | 2.55 | 3.44 | 1.98 | 1.17 | 5.69 | 1.05 | 0.618 |

| Sequence | SH2 binding enrichment [1] | SH2 binding enrichment [2] | SH2 binding enrichment [3] | phosphorylation enrichment [4] | phosphorylation enrichment [5] | phosphorylation enrichment [6] | phosphorylation enrichment [7] | phosphorylation enrichment [8] | phosphorylation enrichment [9] | phosphorylation enrichment [10] | phosphorylation enrichment [11] | phosphorylation enrichment [12] | phosphorylation enrichment [13] | phosphorylation enrichment [14] | phosphorylation enrichment [15] | phosphorylation enrichment [16] |
| --- | --- | --- | --- | --- | --- | --- | --- | --- | --- | --- | --- | --- | --- | --- | --- | --- |
| REVPVYTYSEP [FAM120B_Y368_D370Y] | 3.29 | 0.853 | 0.614 | 1.97 | 1.13 | 1.81 | 2.33 | 5.2 | 3.19 | 9.05 | 1.56 | 4.16 | 3.86 | 5.36 | 1.82 | 12.9 |
| RFMELYDLNRD [BBS2_Y648_YF] | 0.563 | 1.02 | 1.06 | 0.556 | 0.909 | 0.883 | 0.812 | 2.04 | 0.61 | 1.25 | 0.762 | 1.14 | 1.28 | 0.459 | 1.28 | 0.703 |
| RGDTVYTVNCM [KBTBD13_Y404_R408C] | 0.475 | 0.752 | 0.793 | 0.697 | 0.844 | 0.686 | 0.636 | 2.45 | 0.692 | 3.11 | 0.479 | 1.21 | 0.937 | 0.734 | 1.08 | 0.547 |
| RGEKQYLATPL [ALOX12_Y295_A298T] | 0.569 | 0.784 | 0.766 | 1.02 | 0.931 | 0.711 | 0.342 | 0.812 | 0.598 | 0.665 | 1.06 | 0.484 | 0.861 | 0.53 | 1.01 | 0.571 |
| RGFRQYAFDGK [HLA-A_Y140_D140Y_YF] | 0.534 | 0.832 | 0.794 | 0.595 | 0.381 | 0.779 | 0.51 | 0.653 | 0.715 | 0.546 | 0.557 | 0.711 | 0.77 | 0.584 | 0.66 | 0.425 |
| RHFSSYSQMEN [PKP1_Y120_R116H] | 2.71 | 0.991 | 0.991 | 0.413 | 0.545 | 0.688 | 0.768 | 0.414 | 0.632 | 0.551 | 0.776 | 0.551 | 1.02 | 0.562 | 1 | 0.603 |
| RHSGSYLVTSV [APC_Y2838] | 0.604 | 0.791 | 0.914 | 0.611 | 0.963 | 0.451 | 0.559 | 0.463 | 0.505 | 0.431 | 0.438 | 0.616 | 0.759 | 0.682 | 0.863 | 0.51 |
| RILENYGADID [DNAH5_Y596_L591R] | 0.802 | 0.525 | 0.474 | 0.951 | 1.14 | 0.695 | 0.719 | 0.56 | 0.717 | 0.726 | 0.765 | 0.494 | 1.17 | 0.51 | 1.06 | 0.403 |
| RIRRRYCQVLN [IQCF1_Y144] | 0.482 | 0.666 | 0.438 | 0.455 | 0.614 | 0.703 | 0.592 | 0.575 | 0.784 | 0.583 | 0.708 | 0.826 | 0.673 | 0.609 | 1.11 | 0.835 |
| RIVEIYTRRLQ [GCH1_Y175_S176T] | 0.325 | 0.756 | 0.58 | 0.517 | 0.637 | 0.632 | 0.462 | 1.01 | 0.503 | 0.543 | 0.515 | 0.613 | 0.936 | 0.605 | 0.949 | 0.436 |
| RKKEEYKMAPY [F8_Y1990_L1994P] | 0.721 | 1.32 | 1.02 | 1.03 | 1.1 | 0.941 | 0.865 | 0.816 | 0.583 | 0.939 | 1.18 | 1.06 | 1.16 | 0.933 | 1.33 | 0.926 |
| RKKLFYKADGE [SERPINC1_Y272_E269K] | 0.338 | 0.733 | 0.628 | 0.894 | 0.732 | 0.473 | 0.579 | 0.778 | 0.34 | 0.621 | 0.528 | 0.657 | 0.624 | 0.531 | 0.648 | 0.587 |
| RKQQLYTAMEE [CCDC39_Y593] | 3.25 | 1.29 | 0.576 | 0.677 | 0.836 | 0.757 | 0.534 | 0.583 | 0.707 | 0.529 | 0.431 | 0.855 | 0.933 | 2.02 | 0.963 | 0.672 |
| RLCQDYDTIGP [ANK1_Y1073] | 1.61 | 1.35 | 0.814 | 0.964 | 0.778 | 0.976 | 3.94 | 0.971 | 2.96 | 0.838 | 0.541 | 1.61 | 1.88 | 0.602 | 1.44 | 1.05 |
| RLDPVYFVAPA [LAMC2_Y250] | 0.594 | 0.897 | 0.915 | 1.82 | 1.73 | 5.76 | 4.85 | 7.69 | 5.28 | 11.5 | 6.89 | 8.92 | 1.46 | 5.95 | 0.787 | 0.523 |
| RLKAKYAAATG [GLI3_Y933] | 0.511 | 0.811 | 0.698 | 0.601 | 0.692 | 0.395 | 0.526 | 0.529 | 0.421 | 0.379 | 0.36 | 0.464 | 0.64 | 0.414 | 0.611 | 0.486 |
